Data on four molecules can be found in US20250213710A1 (PHENOMIC AI, published 2025).

A value given as a limit tells only on which side of the number the result lay.

For assay [1], the target named is integrin αV on ovarian cancer cells (SKOV3) (human) (UniProt P06756). The assay is described as follows: cell-based or functional assay.
In assay [2] the target is integrin β1 on ovarian cancer cells (SKOV3) (human) (UniProt P05556). The assay is described as follows: cell-based or functional assay.
Chain of integrin β1 on ovarian cancer cells (SKOV3) (human) (P05556 21-798): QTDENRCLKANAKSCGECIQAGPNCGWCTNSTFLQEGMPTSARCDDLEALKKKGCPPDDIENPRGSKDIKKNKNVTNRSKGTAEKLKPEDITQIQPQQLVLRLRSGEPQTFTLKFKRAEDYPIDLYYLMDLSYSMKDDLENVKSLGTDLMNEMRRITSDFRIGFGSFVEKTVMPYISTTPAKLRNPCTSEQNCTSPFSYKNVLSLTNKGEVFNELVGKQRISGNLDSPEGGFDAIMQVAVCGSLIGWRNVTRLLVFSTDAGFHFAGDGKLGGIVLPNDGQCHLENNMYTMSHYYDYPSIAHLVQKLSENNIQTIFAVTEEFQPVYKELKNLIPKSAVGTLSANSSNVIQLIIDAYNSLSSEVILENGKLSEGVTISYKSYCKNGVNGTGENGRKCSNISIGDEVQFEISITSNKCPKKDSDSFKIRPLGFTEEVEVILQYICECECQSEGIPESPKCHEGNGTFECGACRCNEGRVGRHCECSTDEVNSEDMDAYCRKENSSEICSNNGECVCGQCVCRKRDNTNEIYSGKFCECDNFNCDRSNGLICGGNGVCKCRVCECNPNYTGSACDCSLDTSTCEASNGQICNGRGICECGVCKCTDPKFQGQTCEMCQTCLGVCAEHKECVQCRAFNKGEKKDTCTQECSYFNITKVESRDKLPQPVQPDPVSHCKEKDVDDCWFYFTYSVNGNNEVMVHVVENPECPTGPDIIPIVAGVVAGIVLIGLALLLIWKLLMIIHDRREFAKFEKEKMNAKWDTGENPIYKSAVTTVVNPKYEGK
Assay [3] addresses T1, mouse CTHRC1 (mouse, UniProt Q9D1D6 33-245, limits assumed).
T1 construct: also called muCTHRC1
The assay is described as follows: binding EC50 on muCTHRC1 (assay not named).

The target in assay [4] is T2, rat CTHRC1 (rat, UniProt Q8CG08 33-245, limits assumed). The assay is described as follows: binding EC50 on rat CTHRC1 (assay not named).
T2 sequence (Q8CG08 33-245 limits assumed): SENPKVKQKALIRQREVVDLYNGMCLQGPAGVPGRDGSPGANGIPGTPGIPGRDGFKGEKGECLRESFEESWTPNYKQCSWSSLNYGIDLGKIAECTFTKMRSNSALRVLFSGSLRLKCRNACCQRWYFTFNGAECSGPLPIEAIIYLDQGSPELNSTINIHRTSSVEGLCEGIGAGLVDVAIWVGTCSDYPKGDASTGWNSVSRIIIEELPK
The target of assay [5] is recombinant human CTHRC1 (Collagen Triple Helix Repeat Containing 1) (human) (UniProt Q96CG8). The assay is described as follows: cell-based or functional assay.
Chain of recombinant human CTHRC1 (Collagen Triple Helix Repeat Containing 1) (human) (Q96CG8 31-243): as the sequence (Q8CG08 33-245 limits assumed) above, with N3I, V6G, L11Q, I12L, L155M counted along it
Assay [6] shares this target. The assay is described as follows: binding EC50 on huCTHRC1 (assay not named).
Assay [7] has as its target T1, mouse CTHRC1. The assay is described as follows: assay not named (Table 2 EC50 columns show n/a).
Assay [8] concerns the target T2, rat CTHRC1. The assay is described as follows: assay not named (Table 2 EC50 columns show n/a).

T1 sequence (Q9D1D6 33-245 limits assumed): as the sequence (Q8CG08 33-245 limits assumed) above
Chain of integrin αV on ovarian cancer cells (SKOV3) (human) (P06756 31-1048): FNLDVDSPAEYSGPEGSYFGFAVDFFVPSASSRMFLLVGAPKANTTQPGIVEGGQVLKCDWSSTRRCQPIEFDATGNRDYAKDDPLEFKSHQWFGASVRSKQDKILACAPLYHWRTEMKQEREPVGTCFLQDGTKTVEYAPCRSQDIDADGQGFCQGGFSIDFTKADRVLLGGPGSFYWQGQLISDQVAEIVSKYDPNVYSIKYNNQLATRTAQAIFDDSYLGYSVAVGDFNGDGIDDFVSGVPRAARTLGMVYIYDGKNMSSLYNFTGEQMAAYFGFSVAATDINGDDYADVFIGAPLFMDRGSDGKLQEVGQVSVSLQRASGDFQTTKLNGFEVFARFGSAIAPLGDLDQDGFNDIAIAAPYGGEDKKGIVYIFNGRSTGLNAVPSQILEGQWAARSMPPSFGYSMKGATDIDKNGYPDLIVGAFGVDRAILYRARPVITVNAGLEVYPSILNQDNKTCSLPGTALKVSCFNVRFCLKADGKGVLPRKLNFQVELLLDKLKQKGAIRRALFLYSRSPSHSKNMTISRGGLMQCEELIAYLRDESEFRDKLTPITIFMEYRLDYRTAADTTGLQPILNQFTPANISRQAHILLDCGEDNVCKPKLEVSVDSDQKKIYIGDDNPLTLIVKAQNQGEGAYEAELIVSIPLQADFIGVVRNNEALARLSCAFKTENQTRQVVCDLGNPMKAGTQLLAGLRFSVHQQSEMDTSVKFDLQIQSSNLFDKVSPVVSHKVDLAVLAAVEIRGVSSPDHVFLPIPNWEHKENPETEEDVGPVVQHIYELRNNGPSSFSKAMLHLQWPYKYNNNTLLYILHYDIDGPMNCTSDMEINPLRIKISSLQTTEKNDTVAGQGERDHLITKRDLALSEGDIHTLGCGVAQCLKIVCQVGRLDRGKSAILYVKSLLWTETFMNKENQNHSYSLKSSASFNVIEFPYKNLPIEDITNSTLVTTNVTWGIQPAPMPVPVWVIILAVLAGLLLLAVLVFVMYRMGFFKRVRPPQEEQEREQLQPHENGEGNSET

With “recombinant human CTHRC1 (Collagen Triple Helix Repeat Containing 1) (from UniProt Q96CG8 31-243)”, in assay [1], the cell adhesion of ovarian cancer cells to CTHRC1 after 1 hour with 100 nM integrin αV antibody came out at 2 fold; the cell adhesion of ovarian cancer cells to CTHRC1 after 1 hour with a combination of integrin β1 antibody and integrin αV antibody was 2 fold; the decrease in cell adhesion of ovarian cancer cells to CTHRC1 after 1 hour with 100 nM integrin αV antibody was found to be 40%. For the same molecule, in assay [2], the cell adhesion of ovarian cancer cells to CTHRC1 after 1 hour with 100 nM integrin β1 antibody came out at 2 fold; the cell adhesion of ovarian cancer cells to CTHRC1 after 1 hour with a combination of integrin β1 antibody and integrin αV antibody came to 2 fold; the decrease in cell adhesion of ovarian cancer cells to CTHRC1 after 1 hour with 100 nM integrin β1 antibody came to 75%.

B1: CTHRC1S-M5 (AB987) (antibody, V domains shown)
VH: EVQLVESGGGLVTPGGSLRLSCAASGFTFSTYSMNWVRQAPGKGLEWVSSISGSSGHIYYADSVRGRFTISRDNAKNSLYLQMNSLRAEDTAVYYCASMHYYYYLDVWGKGTTVTVSS
VL: QAVVTQESALTTSPGETVTLTCRSSTGTVTTSNYVTWVQEKPDHLFTGLIGATNNRAPGVPARFSGSLIGDKAALTITGAQTEDEAIYFCALWYSNHWVFGGGTKLTVL
notes: Monoclonal antibody purified from a hybridoma of a humanized transgenic mouse immunized with rhCTHRC1; also called CTHRCIS-M5; anti-CTHRC1 clone M5
What is called EC50 is the midpoint of the concentration-response curve. Turning to B1, the EC50 in assay [3] is 260 pM; in assay [4], 1730 pM; in assay [6], 1850 pM. Further, in assay [5], the blocking of cell adhesion to CTHRC1 (cell adhesion assay) was > 50%.

B2: CTHRC1S-M14 (AB991) (antibody, V domains shown)
VH: EVQVVESGGGLVQPGGSLRLSCAASRFTFSNYWMSWVRQAPGRGLEWVANIKQDGSEKYYVDSVKGRFTISRDNAKNSLYLQMNSLRAEDTAVYYCAREGGYCSDTRCFFYMDVWGKGTTVTVSS
VL: DIQMTQSPSTLSASVGDRVTITCRASQSIISWLAWYQQKPGKAPKLLIYKASSLEGGVPSRFSGSGSGTDFTLTISSLQPDDFATYYCQQYNSYSRTFGQGTTVEIK
notes: Monoclonal antibody purified from a hybridoma of a humanized transgenic mouse; also called anti-CTHRC1 clone M14
With B2, the EC50 in assay [3] was found to be 940 pM; in assay [4] it was 50 pM; in assay [6], 50 pM.

B3: CTHRC1S-M11 (AB989) (antibody, V domains shown)
VH: QVTLRESGPALVKPTQTLTLTCTFSGFSLSTNVMCVSWIRQPPGKALEWLALIDWDDDKYYSTSLKTRLTISKDTSKNQVVLTMTNMDPVDTATYYCARTGITGTHYYYYYMDVWGKGTTVTVSS
VL: AIQMTQSPSSLSASVGDRVTITCRASQGIRNDLGWYQQKPGKAPKLLIYAASSLQSGVPSRFSGSGFGTDFTLTISSLQPEDFATYYCLQDYNYPWTFGQGTKVEIK
notes: Monoclonal antibody purified from a hybridoma of a humanized transgenic mouse; also called CTHRCIS-M11
Consider B3, for which the binding result in assay [7] and in assay [8] was “no binding” in each case. For the same molecule, the blocking of cell adhesion to CTHRC1 (cell adhesion assay) in assay [5] is > 50%. The EC50 in assay [6] worked out at 9760 pM.
